According to paper PMC9976406, “ANGPTL2 binds MAG to efficiently enhance oligodendrocyte differentiation” (Cell & Bioscience, 2023):
Values belong to the molecule of their own block, whether it stands above or below them.

Tests used:
[1] = biological target: ANGPTL2-Flag (angiopoietin-like protein 2) (UniProt Q9UKU9); experiment: flow cytometry on cells; conditions: MAG constructs expressed on 293T cells; ANGPTL2 row of plots (representative plot; n = 3 in panel H); parent: 41.7
[2] = biological target: LILRB2 (Homo sapiens) (UniProt Q8N423); conditions: cited from earlier work
[3] = biological target: T1, ANGPTL2-Flag (angiopoietin-like protein 2), Q9UKU9; experiment: flow cytometry on cells; conditions: chain shown with the change; MAG constructs expressed on 293T cells; ANGPTL2 row of plots (representative plot; n = 3 in panel H); parent: 41.7
T1 chain: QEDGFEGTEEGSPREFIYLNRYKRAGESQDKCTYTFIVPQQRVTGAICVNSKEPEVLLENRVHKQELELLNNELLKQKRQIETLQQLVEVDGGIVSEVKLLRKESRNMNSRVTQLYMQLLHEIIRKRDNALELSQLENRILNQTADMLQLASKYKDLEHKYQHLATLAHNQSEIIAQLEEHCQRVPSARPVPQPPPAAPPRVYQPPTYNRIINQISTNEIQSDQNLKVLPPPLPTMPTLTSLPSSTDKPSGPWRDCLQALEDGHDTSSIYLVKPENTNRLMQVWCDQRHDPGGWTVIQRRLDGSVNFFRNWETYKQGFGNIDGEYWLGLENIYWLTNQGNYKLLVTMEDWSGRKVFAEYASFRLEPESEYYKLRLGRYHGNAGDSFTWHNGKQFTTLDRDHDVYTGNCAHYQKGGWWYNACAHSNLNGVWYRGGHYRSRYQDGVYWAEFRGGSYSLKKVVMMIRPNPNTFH

[4] = biological target: T2, murine MAG-ECD-Fc (extracellular domain of murine MAG fused with human Fc) (murine, UniProt P20917 20-516); experiment: BLI; Octet RED96/RED96e; MAG-hFc from conditioned medium loaded on AHC biosensors; purified ANGPTL2 at indicated doses in kinetics buffer; conditions: one partner purified
T2 construct: myelin-associated glycoprotein (MAG), murine, extracellular domain (ECD); also called mouse MAG-hFc; murine MAG-hFC; source: 293T, transfected, in conditioned medium
T2 sequence (looked up): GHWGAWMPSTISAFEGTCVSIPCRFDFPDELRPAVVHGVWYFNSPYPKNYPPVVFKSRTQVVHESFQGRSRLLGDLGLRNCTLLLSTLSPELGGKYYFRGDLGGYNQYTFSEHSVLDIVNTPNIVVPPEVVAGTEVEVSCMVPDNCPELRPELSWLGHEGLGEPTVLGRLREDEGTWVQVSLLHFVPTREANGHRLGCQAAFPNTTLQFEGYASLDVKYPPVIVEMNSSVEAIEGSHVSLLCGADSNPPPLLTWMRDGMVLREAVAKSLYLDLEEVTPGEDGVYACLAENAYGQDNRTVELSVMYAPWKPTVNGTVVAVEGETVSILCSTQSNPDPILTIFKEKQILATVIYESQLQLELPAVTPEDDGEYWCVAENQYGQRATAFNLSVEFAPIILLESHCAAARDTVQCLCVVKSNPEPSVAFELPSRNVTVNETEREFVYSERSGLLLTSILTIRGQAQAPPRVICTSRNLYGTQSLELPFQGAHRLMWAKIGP

[5] = biological target: human MAG-ECD-FC (extracellular domain of human MAG fused with human Fc) (human) (UniProt P20916); experiment: as above
[6] = biological target: human MAG-ECD-FC (extracellular domain of human MAG fused with human Fc) (human) (UniProt P20916); experiment: SPR; Biacore T200, CM5 chip; MAG-hFc from conditioned medium captured by pre-immobilised anti-hFc antibody; purified ANGPTL2 injected at indicated doses
[7] = biological target: T2, murine MAG-ECD-Fc (extracellular domain …); experiment: as above; conditions: one partner purified

Chain of LILRB2 (Homo sapiens) (Q8N423 22-460): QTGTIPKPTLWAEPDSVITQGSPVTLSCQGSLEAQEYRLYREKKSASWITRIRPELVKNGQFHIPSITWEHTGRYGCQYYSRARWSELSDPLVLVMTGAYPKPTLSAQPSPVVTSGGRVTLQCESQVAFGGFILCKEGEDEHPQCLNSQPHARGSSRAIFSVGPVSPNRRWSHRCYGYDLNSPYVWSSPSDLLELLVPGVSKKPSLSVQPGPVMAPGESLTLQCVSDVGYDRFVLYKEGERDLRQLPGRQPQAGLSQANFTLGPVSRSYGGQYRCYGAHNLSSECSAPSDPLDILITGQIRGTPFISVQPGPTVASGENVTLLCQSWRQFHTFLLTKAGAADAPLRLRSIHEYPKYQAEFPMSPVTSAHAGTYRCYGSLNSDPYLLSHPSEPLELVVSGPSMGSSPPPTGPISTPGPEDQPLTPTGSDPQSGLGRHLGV

Molecule: human MAG (myelin-associated glycoprotein), full-length, fused with EGFP (N1-hMAG-EGFP) (from UniProt P20916) G389D; Y341A
response (% of EGFP+ cells binding ANGPTL2) [1]: 0.33

Molecule: ANGPTL2 (from UniProt Q9UKU9)
Kd [2]: 5.5 nM

The next lines start with the values.

response (% of EGFP+ cells binding ANGPTL2) [3]: 0.61
B1: human MAG (myelin-associated glycoprotein), full-length, fused with EGFP (N1-hMAG-EGFP), P20916 G301D; Y303A (protein)
chain: GHWGAWMPSSISAFEGTCVSIPCRFDFPDELRPAVVHGVWYFNSPYPKNYPPVVFKSRTQVVHESFQGRSRLLGDLGLRNCTLLLSNVSPELGGKYYFRGDLGGYNQYTFSEHSVLDIVNTPNIVVPPEVVAGTEVEVSCMVPDNCPELRPELSWLGHEGLGEPAVLGRLREDEGTWVQVSLLHFVPTREANGHRLGCQASFPNTTLQFEGYASMDVKYPPVIVEMNSSVEAIEGSHVSLLCGADSNPPPLLTWMRDGTVLREAVAESLLLELEEVTPAEDDVAACLAENAYGQDNRTVGLSVMYAPWKPTVNGTMVAVEGETVSILCSTQSNPDPILTIFKEKQILSTVIYESELQLELPAVSPEDDGEYWCVAENQYGQRATAFNLSVEFAPVLLLESHCAAARDTVQCLCVVKSNPEPSVAFELPSRNVTVNESEREFVYSERSGLVLTSILTLRGQAQAPPRVICTARNLYGAKSLELPFQGAHRLMWAKIGPVGAVVAFAILIAIVCYITQTRRKKNVTESPSFSAGDNPPVLFSSDFRISGAPEKYESERRLGSERRLLGLRGEPPELDLSYSHSDLGKRPTKDSYTLTEELAEYAEIRVK

Kd [4]: 16.4 nM | Kd [5]: 9.34 nM | Kd [6]: 6.47 nM | Kd [7]: 3.08 nM
B2: ANGPTL2-Flag (angiopoietin-like protein 2) (ligand, UniProt Q9UKU9 23-493, looked up)
chain: QEDGFEGTEEGSPREFIYLNRYKRAGESQDKCTYTFIVPQQRVTGAICVNSKEPEVLLENRVHKQELELLNNELLKQKRQIETLQQLVEVDGGIVSEVKLLRKESRNMNSRVTQLYMQLLHEIIRKRDNALELSQLENRILNQTADMLQLASKYKDLEHKYQHLATLAHNQSEIIAQLEEHCQRVPSARPVPQPPPAAPPRVYQPPTYNRIINQISTNEIQSDQNLKVLPPPLPTMPTLTSLPSSTDKPSGPWRDCLQALEDGHDTSSIYLVKPENTNRLMQVWCDQRHDPGGWTVIQRRLDGSVNFFRNWETYKQGFGNIDGEYWLGLENIYWLTNQGNYKLLVTMEDWSGRKVFAEYASFRLEPESEYYKLRLGRYHGNAGDSFTWHNGKQFTTLDRDHDVYTGNCAHYQKGGWWYNACAHSNLNGVWYRGGHYRSRYQDGVYWAEFRGGSYSLKKVVMMIRPNPNTFH
notes: angiopoietin-like protein 2 (ANGPTL2), secreted into the conditioned medium of 293T cells; The same ANGPTL2-Flag was used on human and murine MAG; also called purified ANGPTL2 protein; source: 293T, transfected with CMV-ANGPTL2-Flag; conditioned medium collected after 48 h, or purified from it with M2 resin
